# In patent publication US4885277A, “Anticoagulant therapy” (Oklahoma Medical Research Foundation, priority 1987, dated 1989):
# System: endothelial cellular receptors for Factor IX (cultured bovine aortic endothelial cells)
# Assay: Competitive binding of [125I]-Factor IX to cultured bovine aortic endothelial cells
# Conditions: cultured bovine aortic endothelial cells, 4-5 hours at 4° C.; mean, SEM less than 20%; read-out: Inhibitory Constant, inhibition of binding of [125I]-Factor IX
# Experimental: The purified peptides were tested for their ability to block the binding of bovine Factor IX and IXa to cultured bovine aortic endothelial cells. Bovine Factor IX and IXa for these studies were prepared and radioiodinated (using Na^125 I and the solid state lactoperoxidase technique) using methods described by Stern, et al. (J. Biol. Chem. 260, pp. 6717-6722 [1985]). Bovine aortic endothelial cells were obtained from the aortae of newborn calves as described by Stern, et al. (Proc. Natl. Acad. Sci. U.S.A., 80, pp. 4119-4123 [1983]). These endothelial cells were grown to confluence (1.3×10^5 cells/cm^2) in culture dishes. Binding assays were carried out by incubating either ^125 I-Factor IX or ^125 I-Factor IXa with endothelial cell monolayers in the presence of varying concentrations of one of the peptides. The buffer used in these experiments was Minimal Essential Medium containing 0.5 mg/ml transferring, and the incubation time was 4-5 hours at 4° C. At the end of the incubation period, the cultures were washed to remove unbound material. Then, specifically bound [^125 I]-Factor IX or [^125 I]-Factor IXa was eluted during exposure to EDTA-containing buffer as described by Stern, et al. (Proc. Natl. Acad. Sci. U.S.A., 80, pp. 4119-4123 [1983].
molecule,measurement,value
"Factor IX: bovine Factor IX, Vitamin K-dependent plasma glycoprotein, used as competitor (protein, UniProt P00741 26-462, looked up) Coagulation factor IX: AECTVFLDRENATKILHRPKRYNSGKLEEFVRGNLERECKEEKCSFEEAREVFENTEKTTEFWKQYVDGDQCESNPCLNGGMCKDDINSYECWCQAGFEGTNCELDATCSIKNGRCKQFCKRDTDNKVVCSCTDGYRLAEDQKSCEPAVPFPCGRVSVSHISKKLTRAETIFSNTNYENSSEAEIIWDNVTQSNQSFDEFSRVVGGEDAERGQFPWQVLLHGEIAAFCGGSIVNEKWVVTAAHCIKPGVKITVVAGEHNTEKPEPTEQKRNVIRAIPYHSYNASINKYSHDIALLELDEPLELNSYVTPICIADRDYTNIFLKFGYGYVSGWGKVFNRGRSASILQYLKVPLVDRATCLRSTKFSIYSHMFCAGYHEGGKDSCQGDSGGPHVTEVEGTSFLTGIISWGEECAMKGKYGIYTKVSRYVNWIKEKTKLT",Ki,3 nM
